Experimental data from paper PMC5216914.
Where two headings read alike, the source gives them in different places.

Substance | enzymatic_activity (phosphorylation at Y416) | enzymatic_activity (phosphorylation at Y527)
cSrc: Y416F | abolishes | 
cSrc: Y527F |  | increases
